Data set [1] concerns the molecule itself. Kind of data set: SEC; Superose 6 10/300 GL, 50 mM Tris-HCl pH 7.5, 150 mM NaCl, 10% glycerol, 0.5 mM β-mercaptoethanol, 4 °C; ~75 μg of the Sae2 variant, mock-treated or treated with λ phosphatase for 90 min at 30 °C before loading; absorbance at 215 nm. A general note: Size exclusion chromatography separates by hydrodynamic size, large species first.
In data set [2] the target is T1, pSae2 λ (dephosphorylated) (Saccharomyces cerevisiae, UniProt P46946 1-345).
T1 sequence: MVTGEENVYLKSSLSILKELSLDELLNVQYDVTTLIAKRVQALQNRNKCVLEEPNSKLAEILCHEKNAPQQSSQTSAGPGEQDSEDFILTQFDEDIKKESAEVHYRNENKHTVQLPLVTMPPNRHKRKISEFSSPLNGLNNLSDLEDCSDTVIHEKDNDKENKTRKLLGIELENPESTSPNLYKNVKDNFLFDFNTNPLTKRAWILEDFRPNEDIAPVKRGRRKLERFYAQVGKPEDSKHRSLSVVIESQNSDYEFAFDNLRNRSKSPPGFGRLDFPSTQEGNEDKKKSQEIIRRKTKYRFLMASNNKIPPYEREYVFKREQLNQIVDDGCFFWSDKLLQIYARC
As to the kind of experiment: EMSA; lambda phosphatase-treated; 2 mM Mg2+; 25 mM Tris-acetate pH 7.5, 1 mM DTT, 2 mM Mg acetate, 0.1 mg/ml BSA, 1 nM DNA, 30 C; 1 mM ATP with MRX; 30 nM streptavidin where indicated; native PAGE in TBE. The note with it: protein: recombinant; tags: C-terminal His; N-terminal MBP cleaved with PreScission; label: 3' 32P-cordycepin; blunt before 3' labeling. Background: A gel shift assay detects complexes by their altered migration in electrophoresis.

Data set [3] concerns the molecule itself. As to the kind of experiment: atomic force microscopy (particle volume analysis); 50 nM pSae2 in 40 mM Hepes pH 7, 5 mM MgCl2, 25 mM NaCl, 0.1 mM TCEP deposited on mica, imaged in air, without DNA; molecular weight from a published standard curve.
The target of data set [4] is T2, S. cerevisiae Mre11-Rad50-Xrs2 complex (S. cerevisiae, UniProt P32829 1-692; P12753 1-1312; P33301 1-854).
T2 construct: Mre11, S. cerevisiae; Rad50, S. cerevisiae; Xrs2, S. cerevisiae; also called MRX; MRX complex; copies: + +
T2 sequence (P32829 whole entry, chain 1 of 3): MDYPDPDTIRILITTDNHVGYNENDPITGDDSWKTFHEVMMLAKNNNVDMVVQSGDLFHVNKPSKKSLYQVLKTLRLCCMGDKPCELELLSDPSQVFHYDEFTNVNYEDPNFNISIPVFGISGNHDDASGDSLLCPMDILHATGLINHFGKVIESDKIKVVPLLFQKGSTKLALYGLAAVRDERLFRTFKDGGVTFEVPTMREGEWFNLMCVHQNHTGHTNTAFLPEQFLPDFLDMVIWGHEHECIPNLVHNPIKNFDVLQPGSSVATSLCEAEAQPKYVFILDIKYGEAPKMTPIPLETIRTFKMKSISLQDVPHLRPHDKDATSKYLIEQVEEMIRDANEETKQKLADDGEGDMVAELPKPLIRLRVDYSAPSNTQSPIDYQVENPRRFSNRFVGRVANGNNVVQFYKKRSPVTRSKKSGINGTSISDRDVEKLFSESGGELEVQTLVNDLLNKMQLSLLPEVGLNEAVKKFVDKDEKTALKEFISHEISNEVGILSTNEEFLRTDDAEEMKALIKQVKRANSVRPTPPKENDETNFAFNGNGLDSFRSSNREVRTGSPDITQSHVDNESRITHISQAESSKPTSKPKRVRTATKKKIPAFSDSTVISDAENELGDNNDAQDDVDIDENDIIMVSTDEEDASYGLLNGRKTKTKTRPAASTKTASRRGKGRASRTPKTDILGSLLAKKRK
T2 sequence (P12753 whole entry, chain 2 of 3): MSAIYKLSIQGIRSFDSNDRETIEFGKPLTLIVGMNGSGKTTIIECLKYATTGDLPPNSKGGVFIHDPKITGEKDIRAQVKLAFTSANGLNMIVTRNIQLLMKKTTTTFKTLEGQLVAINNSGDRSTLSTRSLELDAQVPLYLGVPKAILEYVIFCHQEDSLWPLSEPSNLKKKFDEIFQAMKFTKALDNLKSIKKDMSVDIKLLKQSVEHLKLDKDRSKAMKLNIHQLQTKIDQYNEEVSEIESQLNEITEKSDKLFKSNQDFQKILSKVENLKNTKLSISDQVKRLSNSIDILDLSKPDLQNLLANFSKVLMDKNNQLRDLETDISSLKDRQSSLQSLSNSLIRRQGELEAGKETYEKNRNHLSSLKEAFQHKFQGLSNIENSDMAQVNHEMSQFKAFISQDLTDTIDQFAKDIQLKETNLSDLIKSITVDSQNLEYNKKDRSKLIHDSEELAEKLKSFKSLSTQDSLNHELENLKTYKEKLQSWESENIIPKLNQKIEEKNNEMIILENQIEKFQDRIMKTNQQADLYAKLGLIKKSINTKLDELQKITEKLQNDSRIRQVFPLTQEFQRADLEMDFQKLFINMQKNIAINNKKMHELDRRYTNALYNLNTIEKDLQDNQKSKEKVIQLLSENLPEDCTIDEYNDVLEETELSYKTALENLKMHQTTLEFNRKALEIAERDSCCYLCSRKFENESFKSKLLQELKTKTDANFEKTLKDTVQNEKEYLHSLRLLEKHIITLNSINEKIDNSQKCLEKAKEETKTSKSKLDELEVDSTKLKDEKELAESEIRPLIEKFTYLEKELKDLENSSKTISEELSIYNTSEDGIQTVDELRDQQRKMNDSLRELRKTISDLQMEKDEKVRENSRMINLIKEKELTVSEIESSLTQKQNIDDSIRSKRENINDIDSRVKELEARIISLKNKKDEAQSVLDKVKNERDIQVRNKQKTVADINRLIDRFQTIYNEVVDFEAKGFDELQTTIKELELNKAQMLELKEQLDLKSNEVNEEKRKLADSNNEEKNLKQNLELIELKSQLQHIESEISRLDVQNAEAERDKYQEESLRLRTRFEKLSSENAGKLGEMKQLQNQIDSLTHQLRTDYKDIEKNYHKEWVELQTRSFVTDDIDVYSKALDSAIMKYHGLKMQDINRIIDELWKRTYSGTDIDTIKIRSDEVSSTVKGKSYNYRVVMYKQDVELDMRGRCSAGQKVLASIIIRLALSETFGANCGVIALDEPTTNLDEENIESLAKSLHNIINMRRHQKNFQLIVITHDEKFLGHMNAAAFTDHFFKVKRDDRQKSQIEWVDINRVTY
T2 sequence (P33301 whole entry, chain 3 of 3): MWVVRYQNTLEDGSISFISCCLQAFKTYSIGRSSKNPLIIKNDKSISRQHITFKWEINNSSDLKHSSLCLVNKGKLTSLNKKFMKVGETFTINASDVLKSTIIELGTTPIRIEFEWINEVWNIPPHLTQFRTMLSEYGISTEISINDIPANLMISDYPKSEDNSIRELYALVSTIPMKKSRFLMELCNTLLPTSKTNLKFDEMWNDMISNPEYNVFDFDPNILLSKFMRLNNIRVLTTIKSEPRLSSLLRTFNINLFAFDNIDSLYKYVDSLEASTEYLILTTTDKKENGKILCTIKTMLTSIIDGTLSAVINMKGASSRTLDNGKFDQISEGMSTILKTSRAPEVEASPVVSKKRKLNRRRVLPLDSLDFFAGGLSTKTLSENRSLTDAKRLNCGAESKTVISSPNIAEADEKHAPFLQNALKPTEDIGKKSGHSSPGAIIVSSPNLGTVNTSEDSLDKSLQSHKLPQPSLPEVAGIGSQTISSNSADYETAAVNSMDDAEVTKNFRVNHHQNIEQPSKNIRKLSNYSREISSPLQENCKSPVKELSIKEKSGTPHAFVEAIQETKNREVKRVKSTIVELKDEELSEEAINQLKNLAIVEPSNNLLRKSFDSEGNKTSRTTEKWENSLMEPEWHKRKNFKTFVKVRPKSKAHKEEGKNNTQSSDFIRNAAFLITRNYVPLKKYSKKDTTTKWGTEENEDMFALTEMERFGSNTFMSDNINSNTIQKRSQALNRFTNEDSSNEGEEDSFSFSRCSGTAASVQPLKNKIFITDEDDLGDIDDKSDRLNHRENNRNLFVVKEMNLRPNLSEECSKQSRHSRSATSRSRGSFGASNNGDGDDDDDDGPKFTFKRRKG
As to the kind of experiment: pull-down; MBP-tagged Sae2 on amylose resin (mock-treated or λ phosphatase-treated on the resin), 5 μg recombinant MRX, 1 h at 4 °C; wash 50 mM Tris-HCl pH 7.5, 2 mM EDTA, 80 mM NaCl, 0.2% NP40; eluted with 20 mM maltose; silver staining. The note with it: both partners purified.

Numbering of substitutions follows the chain as printed. Names and notes keep the numbering of the source.

B1: pSae2 ΔC95, lacking 95 C-terminal residues (domain or fragment, S. cerevisiae, UniProt P46946 1-250, looked up)
chain: MVTGEENVYLKSSLSILKELSLDELLNVQYDVTTLIAKRVQALQNRNKCVLEEPNSKLAEILCHEKNAPQQSSQTSAGPGEQDSEDFILTQFDEDIKKESAEVHYRNENKHTVQLPLVTMPPNRHKRKISEFSSPLNGLNNLSDLEDCSDTVIHEKDNDKENKTRKLLGIELENPESTSPNLYKNVKDNFLFDFNTNPLTKRAWILEDFRPNEDIAPVKRGRRKLERFYAQVGKPEDSKHRSLSVVIESQ
modifications: phosphorylated (named pSae2; sites not listed)
notes: Sae2, S. cerevisiae, lacking the 95 C-terminal residues; source: Sf9, purified as pSae2; not shown: MBP, N-terminal, cleaved
B1: in data set [1], the binding result is “binds”.

B2: 100 bp dsDNA (Bio100/Bio100c) (dsDNA)
DNA 1: GTAAGTGCCGCGGTGCGGGTGCCAGGGCGTGCCCTTGGGCTCCCCGGGCGCGTACTCCACCTCATAATCTTCTGCCATGGTCGTAGCAGCCTCCTGCATC
DNA 2: GATGCAGGAGGCTGCTACGACCATGGCAGAAGATTATGAGGTGGAGTACGCGCCCGGGGAGCCCAAGGGCACGCCCTGGCACCCGCACCGCGGCACTTAC
modifications: internal biotin-T in Bio100 (bold T; exact position not visible in the text)
In the case of B2, in data set [2], the binding result is given as “binds”.

B3: pSae2 S267A, expressed in the presence of phosphatase inhibitors (natural protein, S. cerevisiae, UniProt P46946 1-345, looked up)
chain: T1 sequence with S267A
modifications: phosphorylated (prepared with phosphatase inhibitors; sites not listed)
notes: Sae2, S. cerevisiae, point mutant made in the pFB-MBP-Sae2-his plasmid; not shown: MBP, N-terminal, cleaved
For B3, the binding result in data set [1] is “binds”.

B4: hyperphosphorylated recombinant Sae2 (pSae2), expressed and purified with phosphatase inhibitors (natural protein, S. cerevisiae, UniProt P46946 1-345, looked up)
chain: T1 sequence
modifications: hyperphosphorylated (phosphatase inhibitors in culture and lysis buffer); estimate of 17 phosphorylation sites; sites not listed in the text
notes: Sae2, S. cerevisiae, full-length polypeptide (ends at residue 345 by the legend's 170-345); Tetramer by AFM volume analysis; also called phosphorylated Sae2; wt pSae2; not shown: MBP, N-terminal, cleaved
For B4, the “stoichiometry N” value in data set [3] stood at 4.

B5: pSae2 S267E dephosphorylated with λ phosphatase (natural protein, S. cerevisiae, UniProt P46946 1-345, looked up)
chain: T1 sequence with S267E
modifications: dephosphorylated with λ phosphatase
notes: Sae2, S. cerevisiae, full-length polypeptide with S267E; also called pSae2 S267E λ; not shown: MBP, N-terminal, cleaved
For B5, the binding result in data set [1] is given as “binds”.

B6: full-length phosphorylated recombinant MBP-tagged pSae2 (mock-treated), on amylose resin (natural protein, S. cerevisiae, UniProt P46946 1-345, looked up)
chain: T1 sequence
modifications: phosphorylated (phosphatase inhibitors; mock-treated); sites not listed
notes: Sae2, S. cerevisiae, full-length polypeptide; The MBP tag was cleaved off only after elution of the complexes; also called MBP-tagged Sae2; MBP-Sae2-His; not shown: MBP, N-terminal, kept
With B6, the binding result in data set [4] was “binds”.

B7: pSae2 S267E phosphomimicking variant, expressed in the presence of phosphatase inhibitors (natural protein, S. cerevisiae, UniProt P46946 1-345, looked up)
chain: T1 sequence with S267E
modifications: phosphorylated (prepared with phosphatase inhibitors; sites not listed)
notes: Sae2, S. cerevisiae, full-length polypeptide with S267E; not shown: MBP, N-terminal, cleaved
In the case of B7, in data set [1], the binding result is given as “binds”.

B8: full-length recombinant MBP-tagged Sae2 dephosphorylated with λ phosphatase on amylose resin (natural protein, S. cerevisiae, UniProt P46946 1-345, looked up)
chain: T1 sequence
modifications: dephosphorylated with λ phosphatase on the resin
notes: Sae2, S. cerevisiae, full-length polypeptide; also called non-phosphorylated MBP-tagged Sae2; not shown: MBP, N-terminal, kept
In the case of B8, the binding result in data set [4] is reported as “binds”.

As usually defined, the stoichiometry N is a count of units in the complex or per binding partner.

(Values after PMC6167383, “Regulatory control of DNA end resection by Sae2 phosphorylation” (Nature Communications, 2018).)
